Measurements taken from patent publication US20110207796A1, “ALPHA-SYNUCLEIN KINASE” (Elan Pharma International Limited, priority 2008, published 2011).

B1: Over-Expressed PLK4 (protein, UniProt O00444 1-970, looked up)
Serine/threonine-protein …: MATCIGEKIEDFKVGNLLGKGSFAGVYRAESIHTGLEVAIKMIDKKAMYKAGMVQRVQNEVKIHCQLKHPSILELYNYFEDSNYVYLVLEMCHNGEMNRYLKNRVKPFSENEARHFMHQIITGMLYLHSHGILHRDLTLSNLLLTRNMNIKIADFGLATQLKMPHEKHYTLCGTPNYISPEIATRSAHGLESDVWSLGCMFYTLLIGRPPFDTDTVKNTLNKVVLADYEMPSFLSIEAKDLIHQLLRRNPADRLSLSSVLDHPFMSRNSSTKSKDLGTVEDSIDSGHATISTAITASSSTSISGSLFDKRRLLIGQPLPNKMTVFPKNKSSTDFSSSGDGNSFYTQWGNQETSNSGRGRVIQDAEERPHSRYLRRAYSSDRSGTSNSQSQAKTYTMERCHSAEMLSVSKRSGGGENEERYSPTDNNANIFNFFKEKTSSSSGSFERPDNNQALSNHLCPGKTPFPFADPTPQTETVQQWFGNLQINAHLRKTTEYDSISPNRDFQGHPDLQKDTSKNAWTDTKVKKNSDASDNAHSVKQQNTMKYMTALHSKPEIIQQECVFGSDPLSEQSKTRGMEPPWGYQNRTLRSITSPLVAHRLKPIRQKTKKAVVSILDSEEVCVELVKEYASQEYVKEVLQISSDGNTITIYYPNGGRGFPLADRPPSPTDNISRYSFDNLPEKYWRKYQYASRFVQLVRSKSPKITYFTRYAKCILMENSPGADFEVWFYDGVKIHKTEDFIQVIEKTGKSYTLKSESEVNSLKEEIKMYMDHANEGHRICLALESIISEEERKTRSAPFFPIIIGRKPGSTSSPKALSPPPSVDSNYPTRERASFNRMVMHSAASPTQAPILNPSMVTNEGLGLTTTASGTDISSNSLKDCLPKSAQLLKSVFVKNVGWATQLTSGAVWVQFNDGSQLVVQAGVSSISYTSPNGQTTRYGENEKLPDYIKQKLQCLSSILLMFSNPTPNFH
B2: Over-Expressed PLK3 (protein, UniProt Q9H4B4 1-646, looked up)
Serine/threonine-protein …: MEPAAGFLSPRPFQRAAAAPAPPAGPGPPPSALRGPELEMLAGLPTSDPGRLITDPRSGRTYLKGRLLGKGGFARCYEATDTETGSAYAVKVIPQSRVAKPHQREKILNEIELHRDLQHRHIVRFSHHFEDADNIYIFLELCSRKSLAHIWKARHTLLEPEVRYYLRQILSGLKYLHQRGILHRDLKLGNFFITENMELKVGDFGLAARLEPPEQRKKTICGTPNYVAPEVLLRQGHGPEADVWSLGCVMYTLLCGSPPFETADLKETYRCIKQVHYTLPASLSLPARQLLAAILRASPRDRPSIDQILRHDFFTKGYTPDRLPISSCVTVPDLTPPNPARSLFAKVTKSLFGRKKKSKNHAQERDEVSGLVSGLMRTSVGHQDARPEAPAASGPAPVSLVETAPEDSSPRGTLASSGDGFEEGLTVATVVESALCALRNCIAFMPPAEQNPAPLAQPEPLVWVSKWVDYSNKFGFGYQLSSRRVAVLFNDGTHMALSANRKTVHYNPTSTKHFSFSVGAVPRALQPQLGILRYFASYMEQHLMKGGDLPSVEEVEVPAPPLLLQWVKTDQALLMLFSDGTVQVNFYGDHTKLILSGWEPLLVTFVARNRSACTYLASHLRQLGCSPDLRQRLRYALRLLRDRSPA
B3: Over-Expressed PLK2 (protein, UniProt Q9NYY3 1-685, looked up)
Serine/threonine-protein …: MELLRTITYQPAASTKMCEQALGKGCGADSKKKRPPQPPEESQPPQSQAQVPPAAPHHHHHHSHSGPEISRIIVDPTTGKRYCRGKVLGKGGFAKCYEMTDLTNNKVYAAKIIPHSRVAKPHQREKIDKEIELHRILHHKHVVQFYHYFEDKENIYILLEYCSRRSMAHILKARKVLTEPEVRYYLRQIVSGLKYLHEQEILHRDLKLGNFFINEAMELKVGDFGLAARLEPLEHRRRTICGTPNYLSPEVLNKQGHGCESDIWALGCVMYTMLLGRPPFETTNLKETYRCIREARYTMPSSLLAPAKHLIASMLSKNPEDRPSLDDIIRHDFFLQGFTPDRLSSSCCHTVPDFHLSSPAKNFFKKAAAALFGGKKDKARYIDTHNRVSKEDEDIYKLRHDLKKTSITQQPSKHRTDEELQPPTTTVARSGTPAVENKQQIGDAIRMIVRGTLGSCSSSSECLEDSTMGSVADTVARVLRGCLENMPEADCIPKEQLSTSFQWVTKWVDYSNKYGFGYQLSDHTVGVLFNNGAHMSLLPDKKTVHYYAELGQCSVFPATDAPEQFISQVTVLKYFSHYMEENLMDGGDLPSVTDIRRPRLYLLQWLKSDKALMMLFNDGTFQVNFYHDHTKIIICSQNEEYLLTYINEDRISTTFRLTTLLMSGCSSELKNRMEYALNMLLQRCN

Tested on: synuclein phosphorylation
Assay: overexpression of PLK family members with WT-synuclein in HEK-293 cells, phospho-synuclein ELISA
Type: cell-based, human
Conditions: for Proportion of total synuclein that is phoshorylated at ser-129: 48 hours post-transfection, with WT-synuclein; for Fold Change in Percent Synuclein Phosphorylation: relative to endogenous kinase (2.0%)
Protocol: HEK-293 naïve cells were transfected with an expression vector encoding PLK1, PLK2, PLK3, or PLK4 under the control of a CMV promoter, or empty vector, together with an expression vector encoding WT-synuclein. All vectors had the sequence coding for the protein of interest. Transfection was accomplished using Lipofectamine 2000 (Invitrogen, Carlsbad, Calif.) with 0.08 μg vector. Cells were washed and harvested 48 hours post-transfection. A Micro BCA (Pierce) total protein assay and total synuclein and phospho-synuclein ELISAs were performed on each plate of treated cells.

Molecule | Proportion of total synuclein that is phoshorylated at ser-129 [%] | Fold Change in Percent Synuclein Phosphorylation
B1 | 1.9 | 1.0
B2 | 79.2 | 39.6
B3 | 42.3 | 21.2
